The target of one test is T1, α, β and γ ENaC subunits (Rattus norvegicus, UniProt P37089+P37090+P37091).
T1 construct: expressed in transfected cells; host or cells: Xenopus oocytes (cRNA injection), lysates
T1 sequence (P37089 1-698): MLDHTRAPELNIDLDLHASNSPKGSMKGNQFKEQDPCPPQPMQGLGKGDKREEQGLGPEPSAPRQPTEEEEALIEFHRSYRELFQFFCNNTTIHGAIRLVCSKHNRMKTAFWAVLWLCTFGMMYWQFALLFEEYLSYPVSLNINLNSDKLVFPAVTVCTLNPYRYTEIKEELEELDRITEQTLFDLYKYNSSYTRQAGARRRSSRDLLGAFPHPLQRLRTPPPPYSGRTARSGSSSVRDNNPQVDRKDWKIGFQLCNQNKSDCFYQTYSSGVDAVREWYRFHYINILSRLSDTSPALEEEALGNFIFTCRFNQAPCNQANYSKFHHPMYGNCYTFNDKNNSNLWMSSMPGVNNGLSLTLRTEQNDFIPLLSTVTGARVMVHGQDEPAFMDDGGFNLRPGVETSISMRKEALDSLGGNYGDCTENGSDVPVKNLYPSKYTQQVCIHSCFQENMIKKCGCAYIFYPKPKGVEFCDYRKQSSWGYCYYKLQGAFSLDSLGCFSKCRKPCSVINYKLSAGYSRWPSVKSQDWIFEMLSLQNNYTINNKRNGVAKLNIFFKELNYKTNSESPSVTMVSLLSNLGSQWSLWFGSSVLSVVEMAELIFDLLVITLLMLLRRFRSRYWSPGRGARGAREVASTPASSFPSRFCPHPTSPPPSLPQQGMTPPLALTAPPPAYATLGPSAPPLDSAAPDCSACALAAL
T1 sequence (P37090 1-638): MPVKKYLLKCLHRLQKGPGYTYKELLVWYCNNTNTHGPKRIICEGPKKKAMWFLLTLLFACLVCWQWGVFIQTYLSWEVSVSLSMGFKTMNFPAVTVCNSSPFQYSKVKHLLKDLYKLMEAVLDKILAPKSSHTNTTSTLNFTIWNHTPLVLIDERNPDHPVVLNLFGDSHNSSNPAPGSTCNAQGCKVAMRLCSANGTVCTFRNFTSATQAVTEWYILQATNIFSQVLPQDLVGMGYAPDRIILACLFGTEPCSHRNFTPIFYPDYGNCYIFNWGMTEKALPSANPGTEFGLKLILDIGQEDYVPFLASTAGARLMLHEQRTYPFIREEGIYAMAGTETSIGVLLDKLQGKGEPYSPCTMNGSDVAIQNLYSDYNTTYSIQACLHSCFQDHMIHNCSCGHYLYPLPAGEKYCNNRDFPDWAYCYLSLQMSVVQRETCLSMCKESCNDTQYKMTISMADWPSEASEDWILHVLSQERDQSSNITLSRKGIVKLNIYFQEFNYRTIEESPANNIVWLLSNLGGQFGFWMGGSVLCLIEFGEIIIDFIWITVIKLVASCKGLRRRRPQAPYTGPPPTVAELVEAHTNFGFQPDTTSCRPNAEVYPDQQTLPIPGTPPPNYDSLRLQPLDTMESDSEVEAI
T1 sequence (P37091 1-650): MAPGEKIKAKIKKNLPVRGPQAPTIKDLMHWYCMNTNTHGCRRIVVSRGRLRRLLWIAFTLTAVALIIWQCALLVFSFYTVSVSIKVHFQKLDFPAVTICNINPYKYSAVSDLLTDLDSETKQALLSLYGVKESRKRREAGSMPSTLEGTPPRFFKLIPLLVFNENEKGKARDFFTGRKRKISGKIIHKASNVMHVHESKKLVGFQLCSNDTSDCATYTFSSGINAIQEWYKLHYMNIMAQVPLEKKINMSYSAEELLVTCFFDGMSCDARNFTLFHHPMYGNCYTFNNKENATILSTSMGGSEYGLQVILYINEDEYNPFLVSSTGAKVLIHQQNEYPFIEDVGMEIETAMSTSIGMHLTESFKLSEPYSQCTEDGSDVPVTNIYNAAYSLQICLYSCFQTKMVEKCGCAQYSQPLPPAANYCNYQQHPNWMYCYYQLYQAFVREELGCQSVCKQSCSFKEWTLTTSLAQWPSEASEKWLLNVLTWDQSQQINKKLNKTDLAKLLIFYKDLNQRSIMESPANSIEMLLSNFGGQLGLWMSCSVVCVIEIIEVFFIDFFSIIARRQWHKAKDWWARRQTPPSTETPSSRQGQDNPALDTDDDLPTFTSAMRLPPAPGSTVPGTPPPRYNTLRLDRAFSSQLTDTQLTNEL
Briefly: Co-immunoprecipitation of V5-tagged SPLUNC1 with HA-tagged ENaC subunits from Xenopus oocytes. As to conditions: anti-HA immunoprecipitation, probed for V5-tagged SPLUNC1. The format is binding. How it is done: Co-Immunoprecipitation: Xenopus oocytes were injected with either HA-N-Terminus or V5-C-Terminus (HA-NT/V5-CT) tagged subunits in combination with wild type (WT) untagged rat αβγENaC subunits (0.3 ng cRNA each) with or without V5-tagged SPLUNC1 and CAP2 (1 ng cRNA each). After 24 h, 40 eggs per experimental condition were lysed with buffer containing (in mM): 20 Tris, 50 NaCl, 50 NaF, 10 β-glycerophosphate, 5 Na4P2O7 pyrophosphate, 1 EDTA, pH 7.5 and protease inhibitors (complete, Roche), aprotinin (Sigma). Cell lysates were prepared by passing the eggs through a 27 G1/2 needle twice and by centrifugation at 3,600 rpm for 10 minutes at 4° C. Supernatants were transferred to new tubes and samples were spun at 14,000 rpm for 20 minutes at 4° C. Supernatants were discarded and pellets were solubilized in (mM) 50 Tris, 100 NaCl, 0.1% Triton X-100, 0.1% NP-40, 20 NaF, 10 Na4P2O7, 10 EDTA+protease inhibitor cocktail (Sigma), pH 7.5. Total inputs were taken from whole cell samples representing 4% of total protein. Solubilized proteins were incubated with 50 μl of protein A and 5 μl of anti-HA antibody (Covance) overnight while tumbling at 4° C. Samples were washed three times with (mM) 150 NaCl 50 Tris pH 7.5 buffer. Laemmli buffer was added and samples were loaded on a 15% gradient Tris-glycine gel after incubation for 10 minutes at 96° C. […]

For another test, the system named is trypsin. Briefly: Cell-free fluorogenic assay of BGAR-MCA cleavage by trypsin. It is filed as biochemical. The note with it: 50 ng/ml rSPLUNC1; 1.0 or 0.3 U/ml trypsin. How it is done: For cell-free assays, reactions were carried out in 50 μl Ringer in a 96 well plate format with 100 μM BGAR-MCA. To measure endogenous protease activity in human bronchial epithelial cultures, 30 μl Ringer with 100 μM BGAR-MCA were placed directly onto the mucosal surfaces of human bronchial epithelial cultures grown on 12 mm T-clear inserts and the cultures were assayed in 12 well plates.

1 molecule from US9549967B2, “Regulation of sodium channels by PLUNC proteins” (The University of North Carolina at Chapel Hill, priority 2009, dated 2017) can be followed below.

B1: SPLUNC1: human SPLUNC1, 256 amino acid secreted PLUNC protein (SEQ ID NO:1); rSPLUNC1 = V5/6His-tagged protein purified from HEK293 media (protein, listed as Homo sapiens)
chain: MFQTGGLIVFYGLLAQTMAQFGGLPVPLDQTLPLNVNPALPLSPTGLAGSLTNALSNGLLSGGLLGILENLPLLDILKPGGGTSGGLLGGLLGKVTSVIPGLNNIIDIKVTDPQLLELGLVQSPDGHRLYVTIPLGIKLQVNTPLVGASLLRLAVKLDITAEILAVRDKQERIHLVLGDCTHSPGSLQISLLDGLGPLPIQGLLDSLTGILNKVLPELVQGNVCPLVNEVLRGLDITLVHDIVNMLIHGLQFVIKV
modifications: V5/6His tag
notes: rSPLUNC1 = V5/6His-tagged protein purified from HEK293 media
On to B1, for which the “binding to ENaC subunits (co-immunoprecipitation)” value in the test with α, β and γ ENaC subunits was “bound to all three ENaC subunits”. In the test on trypsin, the “effect on the ability of trypsin to cleave fluorogenic substrate BGAR-MCA” value is recorded as around 10%.
